Experimental data published in patent US20050202538A1 (Merck KGaA, published 2005).

Biological target: T1, EPO receptor (expressed on TF-1 cells) (UniProt P19235)
T1 sequence (looked up): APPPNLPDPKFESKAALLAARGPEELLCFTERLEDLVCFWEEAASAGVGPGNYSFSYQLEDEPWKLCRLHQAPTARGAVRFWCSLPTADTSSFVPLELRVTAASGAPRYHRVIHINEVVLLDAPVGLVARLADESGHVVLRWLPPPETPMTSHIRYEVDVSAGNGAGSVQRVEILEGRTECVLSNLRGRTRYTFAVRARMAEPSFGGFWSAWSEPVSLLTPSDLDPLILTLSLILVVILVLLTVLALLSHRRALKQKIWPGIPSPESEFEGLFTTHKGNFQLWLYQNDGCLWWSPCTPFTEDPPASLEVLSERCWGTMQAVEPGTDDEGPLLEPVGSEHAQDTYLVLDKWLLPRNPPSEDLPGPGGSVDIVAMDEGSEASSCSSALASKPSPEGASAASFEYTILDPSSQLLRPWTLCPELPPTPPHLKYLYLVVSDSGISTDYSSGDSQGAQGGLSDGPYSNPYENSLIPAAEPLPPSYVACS
Experiment: cell-based or functional assay

ED50, TF-1 cell proliferation (3H-thymidine incorporation); S.D. 0.96, N 10: 2.4 ng/mL
Substance: EPO (Aranesp®) (ligand)
